Experimental data as given in the Immune Epitope Database (IEDB).

Key:
[1] = molecular target: HLA-B*46:01; assay: IEDB peptide-MHC binding, purified MHC/direct/fluorescence; filed as Kd, often an IC50 or EC50 that approximates it; ≥ and ≤ were set here for values at or beyond the usual limits of such assays; conditions: source organism: West Nile virus
[2] = molecular target: HLA-B*07:02; assay: as above; conditions: source organism: Pseudomonas aeruginosa UCBPP-PA14
[3] = molecular target: HLA-A*01:01; assay: as above; conditions: source organism: Pseudomonas aeruginosa UCBPP-PA14
[4] = molecular target: HLA-B*27:05; assay: as above; conditions: source organism: Pseudomonas aeruginosa UCBPP-PA14
[5] = molecular target: HLA-B*15:01; assay: as above; conditions: source organism: Pseudomonas aeruginosa UCBPP-PA14
[6] = molecular target: HLA-B*08:01; assay: as above; conditions: source organism: Pseudomonas aeruginosa UCBPP-PA14
[7] = molecular target: HLA-A*11:01; assay: as above; conditions: source organism: Pseudomonas aeruginosa UCBPP-PA14
[8] = molecular target: HLA-A*02:01; assay: as above; conditions: source organism: Pseudomonas aeruginosa UCBPP-PA14
[9] = molecular target: HLA-A*31:01; assay: as above; conditions: source organism: Pseudomonas aeruginosa UCBPP-PA14
[10] = molecular target: HLA-B*58:01; assay: as above
[11] = molecular target: HLA-A*03:01; assay: as above; conditions: source organism: Pseudomonas aeruginosa UCBPP-PA14
[12] = molecular target: HLA-A*69:01; assay: as above; conditions: source organism: Pseudomonas aeruginosa UCBPP-PA14
[13] = molecular target: HLA-A*26:01; assay: as above; conditions: source organism: Pseudomonas aeruginosa UCBPP-PA14
[14] = molecular target: HLA-B*15:01; assay: IEDB peptide-MHC binding, purified MHC/competitive/radioactivity; filed as Kd, often an IC50 or EC50 that approximates it; ≥ and ≤ were set here for values at or beyond the usual limits of such assays; conditions: source organism: Dengue virus 2 Jamaica/1409/1983
[15] = molecular target: HLA-A*02:06; assay: as above; conditions: source organism: Dengue virus 2 Jamaica/1409/1983
[16] = molecular target: HLA-B*07:02; assay: as above
[17] = molecular target: HLA-B*51:01; assay: as above
[18] = molecular target: HLA-B*35:01; assay: as above
[19] = molecular target: HLA-B*53:01; assay: as above
[20] = molecular target: HLA-B*54:01; assay: as above
[21] = molecular target: HLA-B*57:01; assay: IEDB peptide-MHC binding, purified MHC/direct/fluorescence; filed as Kd, often an IC50 or EC50 that approximates it; ≥ and ≤ were set here for values at or beyond the usual limits of such assays; conditions: source organism: Listeria monocytogenes
[22] = molecular target: HLA-B*46:01; assay: IEDB peptide-MHC binding, purified MHC/competitive/fluorescence; filed as Kd, often an IC50 or EC50 that approximates it; ≥ and ≤ were set here for values at or beyond the usual limits of such assays; conditions: source organism: Listeria monocytogenes J0161
[23] = source organism: Vaccinia virus WR
[24] = source organism: Triticum aestivum
[25] = source organism: SARS coronavirus Tor2

Question: With AMFEEQNQW as the sequence, how does the Kd [1] read?
Answer: Its Kd is no less than 20 µM.

Question: ANPGRVKDW was tested. Which Kd [2] did it give?
Answer: The Kd was no less than 20 µM.

Question: What about the Kd [3] of the same sequence?
Answer: The Kd was no less than 20 µM.

Question: What about the Kd [4] of the same sequence?
Answer: Its Kd is no less than 20 µM.

Question: What about the Kd [5] of the same sequence?
Answer: Its Kd is no less than 20 µM.

Question: What about the Kd [6] of the same sequence?
Answer: The Kd was no less than 20 µM.

Question: What about the Kd [7] of the same sequence?
Answer: The Kd was no less than 20 µM.

Question: And the Kd [8]?
Answer: The Kd was no less than 20 µM.

Question: What about the Kd [9] of the same sequence?
Answer: The Kd was no less than 20 µM.

Question: What about the Kd ([10]; source organism: Pseudomonas aeruginosa UCBPP-PA14) of the same sequence?
Answer: The Kd was no less than 20 µM.

Question: What about the Kd [11] of the same sequence?
Answer: The Kd was no less than 20 µM.

Question: And the Kd [12]?
Answer: Its Kd is no less than 20 µM.

Question: What about the Kd [13] of the same sequence?
Answer: The Kd was no less than 20 µM.

Question: Which results are given for AQMWTLMYF?
Answer: Kd [14]: 0.000725 µM; Kd [15]: 0.00275 µM

Question: Which results are given for EPLSPDTCL?
Answer: Kd [16, 23]: 10.5 µM; Kd [17, 23]: 0.211 µM; Kd [18, 23]: 0.522 µM; Kd [19, 23]: 0.189 µM; Kd [20, 23]: ≥ 78.1 µM

Question: How did the Kd [16, 23] turn out when FPQHVITKDV was run?
Answer: Its Kd is 0.0573 µM.

Question: What about the Kd [17, 23] of the same sequence?
Answer: The Kd was 0.0662 µM.

Question: What about the Kd [18, 23] of the same sequence?
Answer: Its Kd is 0.153 µM.

Question: And the Kd [19, 23]?
Answer: Its Kd is 0.0162 µM.

Question: And the Kd [20, 23]?
Answer: The Kd was 0.00046 µM.

Question: Which results are given for FPQPQLPY?
Answer: Kd [16, 24]: 14.1 µM; Kd [17, 24]: 0.0204 µM; Kd [18, 24]: 0.244 µM; Kd [19, 24]: 1.04 µM; Kd [20, 24]: ≥ 87.7 µM

Question: Which results are given for FSIMIYFTF?
Answer: Kd [21]: ≥ 20 µM; Kd ([10]; source organism: Listeria monocytogenes): ≥ 20 µM; Kd [22]: ≥ 20 µM

Question: For GPKVKYLYF, which Kd [16, 25] is on record?
Answer: The Kd was 15.8 µM.

Question: And the Kd [17, 25]?
Answer: The Kd was 13.6 µM.

Question: And the Kd [18, 25]?
Answer: The Kd was no less than 52 µM.

Question: What about the Kd [19, 25] of the same sequence?
Answer: Its Kd is no less than 41 µM.

Question: And the Kd [20, 25]?
Answer: Its Kd is 10.4 µM.
